Test results reported in publication PMC8051872.

Target: wild-type full-length human ADAMTS13 (human) (UniProt Q76LX8)

- percent enhancement by antibody 17G2 of catalytic efficiency (kcat/Km) of VWF96 proteolysis; intramolecular Spacer-CUB interaction within full-length ADAMTS13: 188%
B1: wild-type full-length human ADAMTS13 (enzyme)
chain: AAGGILHLELLVAVGPDVFQAHQEDTERYVLTNLNIGAELLRDPSLGAQFRVHLVKMVILTEPEGAPNITANLTSSLLSVCGWSQTINPEDDTDPGHADLVLYITRFDLELPDGNRQVRGVTQLGGACSPTWSCLITEDTGFDLGVTIAHEIGHSFGLEHDGAPGSGCGPSGHVMASDGAAPRAGLAWSPCSRRQLLSLLSAGRARCVWDPPRPQPGSAGHPPDAQPGLYYSANEQCRVAFGPKAVACTFAREHLDMCQALSCHTDPLDQSSCSRLLVPLLDGTECGVEKWCSKGRCRSLVELTPIAAVHGRWSSWGPRSPCSRSCGGGVVTRRRQCNNPRPAFGGRACVGADLQAEMCNTQACEKTQLEFMSQQCARTDGQPLRSSPGGASFYHWGAAVPHSQGDALCRHMCRAIGESFIMKRGDSFLDGTRCMPSGPREDGTLSLCVSGSCRTFGCDGRMDSQQVWDRCQVCGGDNSTCSPRKGSFTAGRAREYVTFLTVTPNLTSVYIANHRPLFTHLAVRIGGRYVVAGKMSISPNTTYPSLLEDGRVEYRVALTEDRLPRLEEIRIWGPLQEDADIQVYRRYGEEYGNLTRPDITFTYFQPKPRQAWVWAAVRGPCSVSCGAGLRWVNYSCLDQARKELVETVQCQGSQQPPAWPEACVLEPCPPYWAVGDFGPCSASCGGGLRERPVRCVEAQGSLLKTLPPARCRAGAQQPAVALETCNPQPCPARWEVSEPSSCTSAGGAGLALENETCVPGADGLEAPVTEGPGSVDEKLPAPEPCVGMSCPPGWGHLDATSAGEKAPSPWGSIRTGAQAAHVWTPAAGSCSVSCGRGLMELRFLCMDSALRVPVQEELCGLASKPGSRREVCQAVPCPARWQYKLAACSVSCGRGVVRRILYCARAHGEDDGEEILLDTQCQGLPRPEPQEACSLEPCPPRWKVMSLGPCSASCGLGTARRSVACVQLDQGQDVEVDEAACAALVRPEASVPCLIADCTYRWHVGTWMECSVSCGDGIQRRRDTCLGPQAQAPVPADFCQHLPKPVTVRGCWAGPCVGQGTPSLVPHEEAAAPGRTTATPAGASLEWSQARGLLFSPAPQPRRLLPGPQENSVQSSACGRQHLEPTGTIDMRGPGQADCAVAIGRPLGEVVTLRVLESSLNCSAGDMLLLWGRLTWRKMCRKLLDMTFSSKTNTLVVRQRCGRPGGGVLLRYGSQLAPETFYRECDMQLFGPWGEIVSPSLSPATSNAGGCRLFINVAPHARIAIHALATNMGAGTEGANASYILIRDTHSLRTTAFHGQQVLYWESESSQAEMEFSEGFLKAQASLRGQYWTLQSWVPEMQDPQSWKGKEGT
